Target: the molecule itself
Assay: native MS; online nanoflow strong cation exchange chromatography coupled to nESI native MS (nanoSCX-nMS); salt-mediated pH gradient from 50 mM ammonium acetate pH 5.0 to 250 mM ammonium acetate pH 8.5

B1: alcohol dehydrogenase (enzyme, UniProt P00330 1-348, looked up)
chain: MSIPETQKGVIFYESHGKLEYKDIPVPKPKANELLINVKYSGVCHTDLHAWHGDWPLPVKLPLVGGHEGAGVVVGMGENVKGWKIGDYAGIKWLNGSCMACEYCELGNESNCPHADLSGYTHDGSFQQYATADAVQAAHIPQGTDLAQVAPILCAGITVYKALKSANLMAGHWVAISGAAGGLGSLAVQYAKAMGYRVLGIDGGEGKEELFRSIGGEVFIDFTKEKDIVGAVLKATDGGAHGVINVSVSEAAIEASTRYVRANGTTVLVGMPAGAKCCSDVFNQVVKSISIVGSYVGNRADTREALDFFARGLVKSPIKVVGLSTLPEIYEKMEKGQIVGRYVVDTSK
notes: alcohol dehydrogenase (ADH), model oligomeric protein called a tetramer; also called ADH
  stoichiometry N: 4
